Target: ancestral SARS-CoV-2 RBD (recombinant, ELISA antigen) (SARS-CoV-2 ancestral (Wuhan-Hu-1/WA.1), UniProt P0DTC2)
Assay: ELISA

B1: M2 mAb (human IgG1) (antibody, V domains shown)
VH: QLQESGPGLVKPSEILSLTCSVSGGSINTNMYYWGWIRQPPGKGLEWIGSIYYSGTTYYNPSLKSRVTMSVDTSENQFSLKLTSVTAADTSVYFCARLPLGERIDYWGRGTLVTVSS
VL: SSDLTQPPSVSVSPGQTASITCSGNKLGDTYVFWYQQKPGQSPVAVINEDNKRPSGIPERFSGSNSGNTATLTISGTQTMDEADYYCQVWDSSQMVFGGGTKLTVL
**Q.** Does B1 bind?
**A.** no binding (tested: 30 μg/mL)

Reference: paper PMC11275766 (bioRxiv, 2024)
